Test results from the supplement of paper PMC10266784.

B1: library; numbered along this chain (parent)
chain: MAAAAAAAAEQQSSNGPVKKSMREKAVERRSVNKEHNSNFKAGYIPIDEDRLHKTGLRGRKGNLAICVIILLFILAVINLIITLVIWAVIRIGPNGCDSMEFHESGLLRFKQVSDMGVIHPLYKSTVGGRRNENLVITGNNQPIVFQQGTTKLSVENNKTSITSDIGMQFFDPRTQNILFSTDYETHEFHLPSGVKSLNVQKASTERITSNATSDLNIKVDGRAIVRGNEGVFIMGKTIEFHMGGNMELKAENSIILNGSVMVSTTRLPSSSSGDQLGSGDWVRYKLCMCADGTLFKVQVTSQNMGCQISDNPCGNTH

Variants of: B1
Experiment: SGCB cell-surface expression functional score (HA stain, bin4 vs bin1, normalised to synonymous) (log10 ratio); higher = more cell-surface SGCB (functional)
Method in brief: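 Sorting and sequencing yield the functional score, defined as the log ratio of a variant's highest-bin frequency to its lowest-bin frequency, with the median taken over codons and replicate transductions. The libraries, codon-saturation sets of HA-tagged, YFP-fused human beta-sarcoglycan, went into HEK293 cells stably carrying alpha-, gamma- and delta-sarcoglycan by duplicate lentiviral transduction at MOI <0.1. Cells were stained on ice with Alexa Fluor 647 anti-HA, fixed and split into four 5% intensity bins, and synonymous variants were scaled per section to mean 0, SD 0.5.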
For MAAAAAAAAEQQSSNGPVKKSMREKAVERRSVNKEHNSNFKAGYIPIDEDRLHKTGLRGRKGNLAICVIILLFILAVINLIITLVIWAVIRIGPNGCDSMEFHESGLLRFKQVSDMGVIHPLYKSTVGGRRNENLVITGNNQPIVFQQGTTKLSVENNKTSITSDIGMQFFDPRTQNILFSTDYETHEFHLPSGVKSLNVQKASTERITSNATSDLNIKVDGRAIVRGNEGVFIMGKTIEFHMGGNMELKAENSIILNGSVMVSTTRLPSSSSGDQLGSGDWVRYKLCMCADGTLFKVQVTSQNFGCQISDNPCGNTH [M305F], the “SGCB cell-surface expression functional score (log10)” value was -0.74.
With MAAAAAAAAEQQSSNGPVKKSMREKAVERRSVNKEHNSNFKAGYIPIDEDRLHKTGLRGRKGNLAICVIILLFILAVINLIITLVIWAVIRIGPNGCDSMEFHESGLLRFKQVSDMGVIHPLYKSTVGGRRNENLVITGNNQPIVFQQGTTKLSVENNKTSITSDIGMQFFDPRTQNILFSTDYETHEFHLPSGVKSLNVQKASTERITSNATSDLNIKVDGRAIVRGNEGVFIMGKTIEFHMGGNMELKAENSIILNGSVMVSTTRLPSSSSGDQLGSGDWVRYKLCMCADGTLFKVQVTSQNAGCQISDNPCGNTH [M305A] the “SGCB cell-surface expression functional score (log10)” value was -0.71.
For MAAAAAAAAEQQSSNGPVKKSMREKAVERRSVNKEHNSNFKAGYIPIDEDRLHKTGLRGRKGNLAICVIILLFILAVINLIITLVIWAVIRIGPNGCDSMEFHESGLLRFKQVSDMGVIHPLYKSTVGGRRNENLVITGNNQPIVFQQGTTKLSVENNKTSITSDIGMQFFDPRTQNILFSTDYETHEFHLPSGVKSLNVQKASTERITSNATSDLNIKVDGRAIVRGNEGVFIMGKTIEFHMGGNMELKAENSIILNGSVMVSTTRLPSSSSGDQLGSGDWVRYKLCMCADGTLFKVQVTSQNWGCQISDNPCGNTH [M305W], the “SGCB cell-surface expression functional score (log10)” value was -0.29.
For MAAAAAAAAEQQSSNGPVKKSMREKAVERRSVNKEHNSNFKAGYIPIDEDRLHKTGLRGRKGNLAICVIILLFILAVINLIITLVIWAVIRIGPNGCDSMEFHESGLLRFKQVSDMGVIHPLYKSTVGGRRNENLVITGNNQPIVFQQGTTKLSVENNKTSITSDIGMQFFDPRTQNILFSTDYETHEFHLPSGVKSLNVQKASTERITSNATSDLNIKVDGRAIVRGNEGVFIMGKTIEFHMGGNMELKAENSIILNGSVMVSTTRLPSSSSGDQLGSGDWVRYKLCMCADGTLFKVQVTSQNNGCQISDNPCGNTH [M305N], the “SGCB cell-surface expression functional score (log10)” value was -1.05.
With MAAAAAAAAEQQSSNGPVKKSMREKAVERRSVNKEHNSNFKAGYIPIDEDRLHKTGLRGRKGNLAICVIILLFILAVINLIITLVIWAVIRIGPNGCDSMEFHESGLLRFKQVSDMGVIHPLYKSTVGGRRNENLVITGNNQPIVFQQGTTKLSVENNKTSITSDIGMQFFDPRTQNILFSTDYETHEFHLPSGVKSLNVQKASTERITSNATSDLNIKVDGRAIVRGNEGVFIMGKTIEFHMGGNMELKAENSIILNGSVMVSTTRLPSSSSGDQLGSGDWVRYKLCMCADGTLFKVQVTSQNKGCQISDNPCGNTH [M305K] the “SGCB cell-surface expression functional score (log10)” value was 0.09.
In the case of MAAAAAAAAEQQSSNGPVKKSMREKAVERRSVNKEHNSNFKAGYIPIDEDRLHKTGLRGRKGNLAICVIILLFILAVINLIITLVIWAVIRIGPNGCDSMEFHESGLLRFKQVSDMGVIHPLYKSTVGGRRNENLVITGNNQPIVFQQGTTKLSVENNKTSITSDIGMQFFDPRTQNILFSTDYETHEFHLPSGVKSLNVQKASTERITSNATSDLNIKVDGRAIVRGNEGVFIMGKTIEFHMGGNMELKAENSIILNGSVMVSTTRLPSSSSGDQLGSGDWVRYKLCMCADGTLFKVQVTSQNDGCQISDNPCGNTH [M305D], the “SGCB cell-surface expression functional score (log10)” value is reported as -0.25.
For MAAAAAAAAEQQSSNGPVKKSMREKAVERRSVNKEHNSNFKAGYIPIDEDRLHKTGLRGRKGNLAICVIILLFILAVINLIITLVIWAVIRIGPNGCDSMEFHESGLLRFKQVSDMGVIHPLYKSTVGGRRNENLVITGNNQPIVFQQGTTKLSVENNKTSITSDIGMQFFDPRTQNILFSTDYETHEFHLPSGVKSLNVQKASTERITSNATSDLNIKVDGRAIVRGNEGVFIMGKTIEFHMGGNMELKAENSIILNGSVMVSTTRLPSSSSGDQLGSGDWVRYKLCMCADGTLFKVQVTSQNPGCQISDNPCGNTH [M305P], the “SGCB cell-surface expression functional score (log10)” value was -0.21.
In the case of MAAAAAAAAEQQSSNGPVKKSMREKAVERRSVNKEHNSNFKAGYIPIDEDRLHKTGLRGRKGNLAICVIILLFILAVINLIITLVIWAVIRIGPNGCDSMEFHESGLLRFKQVSDMGVIHPLYKSTVGGRRNENLVITGNNQPIVFQQGTTKLSVENNKTSITSDIGMQFFDPRTQNILFSTDYETHEFHLPSGVKSLNVQKASTERITSNATSDLNIKVDGRAIVRGNEGVFIMGKTIEFHMGGNMELKAENSIILNGSVMVSTTRLPSSSSGDQLGSGDWVRYKLCMCADGTLFKVQVTSQNIGCQISDNPCGNTH [M305I], the “SGCB cell-surface expression functional score (log10)” value is reported as 0.19.
With MAAAAAAAAEQQSSNGPVKKSMREKAVERRSVNKEHNSNFKAGYIPIDEDRLHKTGLRGRKGNLAICVIILLFILAVINLIITLVIWAVIRIGPNGCDSMEFHESGLLRFKQVSDMGVIHPLYKSTVGGRRNENLVITGNNQPIVFQQGTTKLSVENNKTSITSDIGMQFFDPRTQNILFSTDYETHEFHLPSGVKSLNVQKASTERITSNATSDLNIKVDGRAIVRGNEGVFIMGKTIEFHMGGNMELKAENSIILNGSVMVSTTRLPSSSSGDQLGSGDWVRYKLCMCADGTLFKVQVTSQNCGCQISDNPCGNTH [M305C] the “SGCB cell-surface expression functional score (log10)” value was -0.18.
In the case of MAAAAAAAAEQQSSNGPVKKSMREKAVERRSVNKEHNSNFKAGYIPIDEDRLHKTGLRGRKGNLAICVIILLFILAVINLIITLVIWAVIRIGPNGCDSMEFHESGLLRFKQVSDMGVIHPLYKSTVGGRRNENLVITGNNQPIVFQQGTTKLSVENNKTSITSDIGMQFFDPRTQNILFSTDYETHEFHLPSGVKSLNVQKASTERITSNATSDLNIKVDGRAIVRGNEGVFIMGKTIEFHMGGNMELKAENSIILNGSVMVSTTRLPSSSSGDQLGSGDWVRYKLCMCADGTLFKVQVTSQNGGCQISDNPCGNTH [M305G], the “SGCB cell-surface expression functional score (log10)” value is reported as -0.51.
